The results in this text go back to IntAct's records for PubMed 24510904.

Sequences and labels used below:
B1: BAG family molecular chaperone regulator 5 (Homo sapiens), Q9UL15 (parent)
chain: MDMGNQHPSISRLQEIQKEVKSVEQQVIGFSGLSDDKNYKKLERILTKQLFEIDSVDTEGKGDIQQARKRAAQETERLLKELEQNANHPHRIEIQNIFEEAQSLVREKIVPFYNGGNCVTDEFEEGIQDIILRLTHVKTGGKISLRKARYHTLTKICAVQEIIEDCMKKQPSLPLSEDAHPSVAKINFVMCEVNKARGVLIALLMGVNNNETCRHLSCVLSGLIADLDALDVCGRTEIRNYRREVVEDINKLLKYLDLEEEADTTKAFDLRQNHSILKIEKVLKRMREIKNELLQAQNPSELYLSSKTELQGLIGQLDEVSLEKNPCIREARRRAVIEVQTLITYIDLKEALEKRKLFACEEHPSHKAVWNVLGNLSEIQGEVLSFDGNRTDKNYIRLEELLTKQLLALDAVDPQGEEKCKAARKQAVRLAQNILSYLDLKSDEWEY
B2: Ras-related protein Rab-7L1 (Homo sapiens), O14966 (parent)
chain: MGSRDHLFKVLVVGDAAVGKTSLVQRYSQDSFSKHYKSTVGVDFALKVLQWSDYEIVRLQLWDIAGQERFTSMTRLYYRDASACVIMFDVTNATTFSNSQRWKQDLDSKLTLPNGEPVPCLLLANKCDLSPWAVSRDQIDRFSKENGFTGWTETSVKENKNINEAMRVLIEKMMRNSTEDIMSLSTQGDYINLQTKSSSWSCC

The variants in the first test derive from B1. Conditions: with lrrk2_human LRRK2, Q5S007.
Chain of lrrk2_human LRRK2, Q5S007 (Q5S007 whole entry): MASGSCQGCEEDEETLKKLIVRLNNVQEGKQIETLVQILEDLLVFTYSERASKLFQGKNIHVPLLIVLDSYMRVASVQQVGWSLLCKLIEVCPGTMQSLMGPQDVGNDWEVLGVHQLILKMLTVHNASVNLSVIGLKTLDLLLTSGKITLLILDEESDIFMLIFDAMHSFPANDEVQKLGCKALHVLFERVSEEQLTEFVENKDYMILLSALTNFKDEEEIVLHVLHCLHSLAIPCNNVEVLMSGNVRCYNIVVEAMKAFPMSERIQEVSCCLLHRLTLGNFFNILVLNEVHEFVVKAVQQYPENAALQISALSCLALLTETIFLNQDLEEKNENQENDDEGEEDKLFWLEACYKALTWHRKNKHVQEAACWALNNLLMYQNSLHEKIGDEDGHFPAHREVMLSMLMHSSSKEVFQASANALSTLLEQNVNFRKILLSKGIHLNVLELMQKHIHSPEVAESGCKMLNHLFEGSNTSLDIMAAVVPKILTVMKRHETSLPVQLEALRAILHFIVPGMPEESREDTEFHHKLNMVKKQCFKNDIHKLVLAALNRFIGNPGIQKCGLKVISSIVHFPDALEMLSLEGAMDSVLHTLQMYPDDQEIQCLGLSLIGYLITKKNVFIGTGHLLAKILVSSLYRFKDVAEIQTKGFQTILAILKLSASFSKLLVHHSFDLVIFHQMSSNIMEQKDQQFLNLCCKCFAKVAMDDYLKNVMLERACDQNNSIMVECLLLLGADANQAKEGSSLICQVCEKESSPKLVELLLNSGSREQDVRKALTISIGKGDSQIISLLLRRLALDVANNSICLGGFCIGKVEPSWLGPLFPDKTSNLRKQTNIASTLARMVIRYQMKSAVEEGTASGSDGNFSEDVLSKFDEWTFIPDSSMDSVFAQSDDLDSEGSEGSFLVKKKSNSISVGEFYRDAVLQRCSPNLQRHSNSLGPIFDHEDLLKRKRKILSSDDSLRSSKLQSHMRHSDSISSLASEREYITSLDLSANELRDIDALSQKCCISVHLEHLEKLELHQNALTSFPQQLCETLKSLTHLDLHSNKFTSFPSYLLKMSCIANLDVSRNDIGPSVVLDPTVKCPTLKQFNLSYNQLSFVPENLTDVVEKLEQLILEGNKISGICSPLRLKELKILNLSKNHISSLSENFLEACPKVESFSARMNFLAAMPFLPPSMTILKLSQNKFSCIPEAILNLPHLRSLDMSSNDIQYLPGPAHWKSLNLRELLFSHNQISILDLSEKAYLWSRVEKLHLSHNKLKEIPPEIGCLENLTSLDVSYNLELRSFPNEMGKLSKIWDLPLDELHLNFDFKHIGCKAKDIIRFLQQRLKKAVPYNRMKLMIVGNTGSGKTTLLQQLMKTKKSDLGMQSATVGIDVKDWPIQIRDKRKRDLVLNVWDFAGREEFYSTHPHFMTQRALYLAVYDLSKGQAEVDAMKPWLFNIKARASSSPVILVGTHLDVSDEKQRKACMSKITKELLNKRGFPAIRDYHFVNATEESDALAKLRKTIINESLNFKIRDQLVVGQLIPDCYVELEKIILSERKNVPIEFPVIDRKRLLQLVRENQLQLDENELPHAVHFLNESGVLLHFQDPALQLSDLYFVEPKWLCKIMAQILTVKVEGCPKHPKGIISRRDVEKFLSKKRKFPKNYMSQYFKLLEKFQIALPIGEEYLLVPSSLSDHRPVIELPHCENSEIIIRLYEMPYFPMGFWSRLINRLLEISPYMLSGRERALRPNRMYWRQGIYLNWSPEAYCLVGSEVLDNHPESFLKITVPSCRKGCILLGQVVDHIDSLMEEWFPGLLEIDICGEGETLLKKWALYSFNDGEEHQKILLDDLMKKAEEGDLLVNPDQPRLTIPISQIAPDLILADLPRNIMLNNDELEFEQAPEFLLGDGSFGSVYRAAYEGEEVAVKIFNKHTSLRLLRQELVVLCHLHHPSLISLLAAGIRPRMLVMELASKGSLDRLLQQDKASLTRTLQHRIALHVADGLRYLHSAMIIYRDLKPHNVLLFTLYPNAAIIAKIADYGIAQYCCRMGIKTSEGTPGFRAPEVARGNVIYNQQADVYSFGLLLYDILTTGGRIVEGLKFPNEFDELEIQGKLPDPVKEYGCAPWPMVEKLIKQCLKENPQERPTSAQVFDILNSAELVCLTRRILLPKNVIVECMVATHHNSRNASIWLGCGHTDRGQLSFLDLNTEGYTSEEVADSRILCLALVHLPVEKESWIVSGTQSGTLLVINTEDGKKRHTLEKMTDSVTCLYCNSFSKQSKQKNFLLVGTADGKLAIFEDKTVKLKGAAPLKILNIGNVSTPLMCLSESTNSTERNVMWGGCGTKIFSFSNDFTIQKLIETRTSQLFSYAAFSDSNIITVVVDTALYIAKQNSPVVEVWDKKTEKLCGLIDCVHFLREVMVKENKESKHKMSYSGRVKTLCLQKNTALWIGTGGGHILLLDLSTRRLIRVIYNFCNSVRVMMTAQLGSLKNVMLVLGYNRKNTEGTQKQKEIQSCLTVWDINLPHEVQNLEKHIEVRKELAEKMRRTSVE
On to D54A;R68A;D228A;R242A;D318A;R332A;D410A;R424A, for which the “effect of a mutation on the interaction” value is on record as “decreasing interaction”.

In a further test the parent is B2. Conditions: with lrrk2_human LRRK2, Q5S007.
Regarding Q67L, the “effect of a mutation on the interaction” value is “increasing interaction”.

Take T21N: the “effect of a mutation on the interaction” value is given as “increasing interaction”.

The variants in a further test derive from B2. The conditions noted are these: with lrrk2_human LRRK2, Q5S007. The source holds these as a separate data set.
For the variant Q67L, the “effect of a mutation on the interaction” value was “disrupting interaction”.
